Consider 3 proteins from US20050175581.

Changes are numbered by the printed parent chain.

One series has as its target T1, substrate B.
T1 chain: KKWLGRVPGGPV

A further series addresses T2, substrate A.
T2 chain: LLWLGRVVGGPV

B1: Variant 1 (protein)
chain: IVGGYNCEENSVPYQVSLNSGYHFCGGSLINEQWVVSAGHCYDAVGRDKSRIQVRLGEHNIEVLEGNEQFINAAKIIRHPQYDRKTLNNDIMLIKLSSRAVINARVSTISLPTAPPATGTKCLISGWGNTITNSTASSGADYPDELQCLDAPVLSQAKCEASYPGKITSNMFCVGFLEGGKDSCQGDSGGPVVCNGQLQGVVSWGDGCAQKNKPGVYTKVYNYVKWIKNTIAANS
For the protein B1, the “rate constants of the proteolytic digestion (proportional to kcat/KM), relative to human trypsin I” value (shortened to “rate constants … relative to human trypsin I”) with substrate B was “the specific activity of variants 1 and 2 is shifted (SEQ ID NOs: 2 and 3, respectively) towards substrate B”.

B2: Variant 3 (protein)
chain: B1 chain with D43A, V45T, G46N, R47G, T130R, I131K, T132D, N133F, S134W
Consider B2, for which the “rate constants … relative to human trypsin I” value with substrate A and with substrate B was “serves as a negative control with similar activities as the human trypsin I” in each case.

B3: Variant 2 (protein)
chain: IVGGYNCEENSVPYQVSLNSGYHFCGGSLINEQWVVSAGHCYNGRDLEKSRIQVRLGEHNIEVLEGNEQFINAAKIIRHPQYDRKTLNNDIMLIKLSSRAVINARVSTISLPTAPPATGTKCLISGWGNVRGTWTASSGADYPDELQCLDAPVLSQAKCEASYPGKITSNMFCVGFLEGGKDSCQGDSGGPVVCNGQLQGVVSWGDGCAQKNKPGVYTKVYNYVKWIKNTIAANS
For the protein B3, the “rate constants … relative to human trypsin I” value with substrate B is “the specific activity of variants 1 and 2 is shifted (SEQ ID NOs: 2 and 3, respectively) towards substrate B”.
